Experimental data: patent US20220000983A1 (UNITED STATES GOVERNMENT AS REPRESENTED BY THE DEPARTMENT …, published 2022)
Starred links: 1 amine or outer side, 2 acyl side, 3 side chain; linkers in the order of their positions; H or OH if unused. Non-standard residues stand in square brackets, D forms with d. No end group written: not given here. *: point of attachment. Tyr(Me) = O-methyltyrosine, COc1ccc(C[C@H](N[*:1])C(=O)[*:2])cc1; Phenylacetyl(2,3,4,5,6-F5) = O=C(Cc1c(F)c(F)c(F)c(F)c1F)*; Phe(F5) = N[C@@H](Cc1c(F)c(F)c(F)c(F)c1F)C(=O)O; Phe(4-Cl) = N[C@@H](Cc1ccc(Cl)cc1)C(=O)O; hArg = N=C(N)NCCCC[C@H](N)C(=O)O; Nle = CCCC[C@H](N)C(=O)O; Orn = NCCC[C@H](N)C(=O)O; Abu = CC[C@H](N)C(=O)O; Ada = not defined here; Amp = not defined here; Cpa = not defined here; PhAc = O=C(Cc1ccccc1)*; Aoc = NCCCCCCCC(=O)O

T1: GHRH receptor on rat pituitary cells (rat, UniProt Q02644 23-464)
T1 sequence (looked up): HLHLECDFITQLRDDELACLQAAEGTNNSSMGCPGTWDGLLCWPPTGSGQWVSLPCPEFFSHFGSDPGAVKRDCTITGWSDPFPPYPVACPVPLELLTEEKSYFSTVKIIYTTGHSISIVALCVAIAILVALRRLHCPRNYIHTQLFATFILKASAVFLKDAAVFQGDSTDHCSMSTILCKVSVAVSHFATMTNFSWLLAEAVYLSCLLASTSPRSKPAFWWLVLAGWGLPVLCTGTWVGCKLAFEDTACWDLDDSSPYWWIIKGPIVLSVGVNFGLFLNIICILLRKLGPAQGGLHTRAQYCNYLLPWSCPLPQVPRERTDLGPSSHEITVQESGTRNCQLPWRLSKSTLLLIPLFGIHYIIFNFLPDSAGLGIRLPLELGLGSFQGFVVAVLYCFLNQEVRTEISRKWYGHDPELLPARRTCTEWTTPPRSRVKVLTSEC

T2: GHRH receptor (membrane GHRH-receptors on human anterior pituitary cells) (human, UniProt Q02643 23-423)
T2 construct: whole, on cells; Native receptor in membrane fractions prepared from bought human pituitary (National Hormone and Peptide Program), not a recombinant construct; also called pituitary type GHRH-receptor; pGHRH-R
T2 sequence (looked up): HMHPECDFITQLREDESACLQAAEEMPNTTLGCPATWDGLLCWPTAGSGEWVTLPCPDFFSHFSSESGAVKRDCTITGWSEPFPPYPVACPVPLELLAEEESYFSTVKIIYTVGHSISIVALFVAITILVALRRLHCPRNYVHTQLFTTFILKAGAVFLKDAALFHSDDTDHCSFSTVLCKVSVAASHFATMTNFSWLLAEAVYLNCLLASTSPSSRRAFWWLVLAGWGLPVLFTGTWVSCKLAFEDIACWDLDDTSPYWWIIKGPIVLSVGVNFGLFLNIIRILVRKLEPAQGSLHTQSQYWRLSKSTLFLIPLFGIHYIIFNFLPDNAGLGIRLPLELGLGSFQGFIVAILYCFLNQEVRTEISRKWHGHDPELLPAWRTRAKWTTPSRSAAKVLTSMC


Assays:
[1] = molecular target: T1, GHRH receptor on rat pituitary cells; assay: cell-based or functional assay
[2] = molecular target: GHRH receptor (membrane GHRH-receptors on human anterior pituitary cells) (human) (UniProt Q02643); assay: competitive radioligand binding; displacement of 125I-[His1,Nle27]-hGH-RH(1-32)NH2 (0.2 nM) from human pituitary membrane fractions
[3] = molecular target: T2, GHRH receptor (membrane GHRH-receptors …); assay: as above
Procedure: Receptor binding affinities in vitro. Preparation of human pituitary membrane fractions and receptor binding of analogs of GH-RH were performed (Halmos G, Rekasi Z, Szoke B, Schally A V. (1993) Receptor 3:87-97). Human pituitary was purchased from the National Hormone and Peptide Program. […] The values were calculated from technical duplicate tubes.
Nineteen new AVR analogs of GHRH were tested in the receptor binding assay. Table 6 presents the IC₅₀ values of GHRH antagonists to membrane GHRH-receptors binding on human anterior pituitary cells.

IC50 [3] [nM] | Relative GH release [1] | Molecule | further results
 |  | AVR-540 (peptide) | Relative GH release (relative to control (1.00)) [1]: 0.88
 |  | MIA-602 (peptide) | IC50 [2]: 0.27 nM; Relative GH release (relative to control (1.00)) [1]: 0.78
 |  | AVR-332 (peptide) | IC50 [2]: 0.34 nM
0.11 | 0.65 relative to control (1.00) | {Phenylacetyl(2,3,4,5,6-F5)-Ada}-Y[dR]DAI[Phe(4-Cl)]TA[hArg][Phe(F5)]RKVL[Abu]QLSARKLLQDI[Nle][dR][hArg]-{Ada-NH2} (reading uncertain, Synthetic GHRH antagonist) [AVR-353] | 
0.17 |  | {Phenylacetyl(2,3,4,5,6-F5)-Ada}-Y[dR]DAI[Cpa]TA[hArg][Phe(F5)]H[Orn]VL[Abu]QLSAH[Orn]LLQDI[Nle][dR][hArg]-{Ada-NH2} (reading uncertain, Synthetic GHRH antagonist) [AVR-552] | 
0.49 | 0.6 relative to control (1.00) | {Phenylacetyl(2,3,4,5,6-F5)-Ada}-Y[dR]DAI[Phe(F5)]TA[hArg][Tyr(Me)]RKVL[Abu]QLSARKLLQDI[Nle][dR]-NHMe (reading uncertain) [AVR-235] | 
0.23 |  | {PhAc-Ada}-Y[dR]DAI[Phe(4-Cl)]TN[hArg][Tyr(Me)]RKVL[Abu]QLSARKLLQDI[Nle][dR][hArg]-{Aoc-NHMe} (reading uncertain, Synthetic GHRH antagonist) [AVR-321] | 
0.61 |  | {PhAc-Ada}-Y[dR]DAI[Cpa]TARYRKVL[Abu]QLSARKLLQDI[Nle][dR][hArg]-NH2 (reading uncertain, Synthetic GHRH antagonist) [AVR-107] | 
0.09 | 0.72 relative to control (1.00) | {Phenylacetyl(2,3,4,5,6-F5)-Ada}-Y[dR]DAI[Phe(F5)]TA[hArg][Tyr(Me)]RKVL[Abu]QLSARKLLQDI[Nle][dR][hArg]-{Ada-NH2} (not fully specified; reading uncertain) [AVR-352] | 
0.5 |  | {PhAc-Ada}-Y[dR]DAI[Phe(4-Cl)]TAR[Phe(F5)]RKVL[Abu]QLSAH[Orn]LLQDI[Nle][dR][hArg]-NH2 (reading uncertain, Synthetic GHRH antagonist) [AVR-116] | 
0.15 | 0.82 relative to control (1.00) | {Phenylacetyl(2,3,4,5,6-F5)-Ada}-Y[dR]DAI[Phe(F5)]TA[hArg][Tyr(Me)]H[Orn]VL[Abu]QLSAH[Orn]LLQDI[Nle][dR][hArg]-{Ada-NH2} (reading uncertain, Synthetic GHRH antagonist) [AVR-553] | 
0.53 |  | {PhAc-Ada}-Y[dR]DAI[Cpa]TA[hArg][Phe(F5)]H[Orn]VL[Abu]QLSAH[Orn]LLQDI[Nle][dR][hArg]-NH2 (reading uncertain) [MIA-690] | 
0.48 |  | {dF-Ada}-Y[dR]DAI[Phe(4-Cl)]TAR[Tyr(Me)]RKVL[Abu]QLSAH[Orn]LLQDI[Nle][dR][hArg]-NH2 (reading uncertain, Synthetic GHRH antagonist) [AVR-120] | 
0.31 |  | {Phenylacetyl(2,3,4,5,6-F5)-Ada}-Y[dR]DAI[Cpa]TNR[Tyr(Me)]RKVL[Abu]QLSAH[Orn]LLQDI[Nle][dR][hArg]-{Ada-NH2} (reading uncertain, Synthetic GHRH antagonist) [AVR-620] | 
0.25 |  | {Phenylacetyl(2,3,4,5,6-F5)-Ada}-Y[dR]DAI[Phe(4-Cl)]TN[hArg][Tyr(Me)]RKVL[Abu]QLSARKLLQDI[Nle][dR][hArg]-{Aoc-NHMe} (reading uncertain, Synthetic GHRH antagonist) [AVR-322] | 
0.61 |  | {PhAc-Ada}-Y[dR]DAI[Cpa]TAR[Amp]RKVL[Abu]QLSAH[Orn]LLQDI[Nle][dR][hArg]-NHMe (reading uncertain, Synthetic GHRH antagonist) [AVR-201] | 
0.14 | 0.9 relative to control (1.00) | {Phenylacetyl(2,3,4,5,6-F5)-Ada}-Y[dR]DAI[Phe(4-Cl)]TA[hArg][Phe(F5)]RKVL[Abu]QLSARKLLQDI[Nle][dR][hArg] (not fully specified (C-terminus); reading uncertain) [AVR-354] | 
0.59 |  | {PhAc-Ada}-Y[dR]DAI[Phe(4-Cl)]TAR[Tyr(Me)]RKVL[Abu]QLSAH[Orn]LLQDI[Nle][dR][hArg]-NH2 (reading uncertain, Synthetic GHRH antagonist) [AVR-104] | 
0.25 | 1.1 relative to control (1.00) | {Phenylacetyl(2,3,4,5,6-F5)-Ada}-Y[dR]DAI[Cpa]TA[hArg][Phe(F5)]H[Orn]VL[Abu]QLSAH[Orn]LLQDI[Nle][dR][hArg]-{Ada-NHMe} (reading uncertain, Synthetic GHRH antagonist) [AVR-543] | 
0.21 |  | {Phenylacetyl(2,3,4,5,6-F5)-Ada}-Y[dR]DAI[Cpa]TA[hArg][Phe(F5)]H[Orn]VL[Abu]QLSAH[Orn]LLQDI[Nle][dR][hArg]-NHMe (reading uncertain) [AVR-542] | 
0.3 | 0.88 relative to control (1.00) | {Phenylacetyl(2,3,4,5,6-F5)-Ada}-Y[dR]DAI[Phe(4-Cl)]TN[hArg][Tyr(Me)]RKVL[Abu]QLSARKLLQDI[Nle][dR][hArg]-{Ada-NH2} (reading uncertain, Synthetic GHRH antagonist) [AVR-333] | 
0.45 |  | {PhAc-Ada}-Y[dR]DAI[Phe(4-Cl)]TNR[Tyr(Me)]RKVL[Abu]QLSARKLLQDI[Nle][dR][hArg]-NHMe (reading uncertain, Synthetic GHRH antagonist) [AVR-234] | 
